Test results reported in the supplement of paper PMC9170038.

Tested on: MS2 coat protein
Experiment: apparent KD of MS2 coat protein; designed switch direction (-1 OFF switch, 1 ON switch): 1; higher = weaker reporter binding
Outline: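 SNAP-549-labelled MS2 coat protein was titrated, doubling from 0.7 or 1.5 nM to 3 µM, over designed RNA switches transcribed on Illumina chips by stalled E. coli RNA polymerase. Runs were done without input, with 200 uM small-molecule ligand, or with an oligonucleotide input. Apparent KD is the per-design median over clusters of curve-fitted normalised fluorescence.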

[1] = input ligand: microRNA oligo, concentration not stated
[2] = Eterna round: R95, input ligand: FMN 200 uM
[3] = Eterna round: R95, input ligand: microRNA oligo, concentration not stated
[4] = Eterna round: R95, input ligand: none

Sequence	apparent KD of MS2 coat protein (input ligand: FMN 200 uM)	apparent KD of MS2 coat protein [1]	apparent KD of MS2 coat protein (input ligand: none)	apparent KD of MS2 coat protein [2]	apparent KD of MS2 coat protein [3]	apparent KD of MS2 coat protein [4]
GAGUGGCAGUUAGGAUAUACAGUGAUAAUGAUAGUAGAAGGAACUGACAUGAGGAUCACCCAUGUAGGACUAAUCCAGAGAGAG [Parity 32 - Jieux - Same State NG 1] (Eterna round: R96, puzzle: Same State NG 1)	92.3 nM	21.2 nM	31.5 nM	–	–	–
UGGAUCUAGGCUUGCCUGGGUCCAUGCUGACAUGAGGAUCACCCAUGUGCAUCCUACAAGCUUUUUGCUUGUCUGCC (puzzle: Sensor for hsa-mir-208a)	–	–	–	146 nM	122 nM	93.7 nM
UGACACACGGCAGGAUAUCGAUUCCAAAGGAAUCGAGAAGGGCCUCAUGUCGUGGAAACGUGACAUGAGGAUCACCCAUGUUGC [Omei SS(NG)1 Cv15] (Eterna round: R96, puzzle: Same State NG 1)	222 nM	15.8 nM	96 nM	–	–	–
CGGCGCUGUCGAGAGGAUAUGCGGUGAUGGACAUGAGGAUCACCCAUGUUAGCGAUAGCAUUACGGUAGAAGGCUCUACAGCUGC [Soteed Omei mod 4] (puzzle: Same State 2)	–	–	–	–	27.9 nM	–
AUUUUUAAUGCAGGAUAUGAUUAACAUGAGGAUCACCCAUGUGGUGUUGUGAGUAAGGAGAGUGAUCAGAAGGGCAUUUUUGUU [JMF's solution 85] (Eterna round: R96, puzzle: Same State NG 2)	686 nM	466 nM	715 nM	–	–	–
GAGUAGUUGAAAGGAUAUGGAUUAUUGUAGGAUCCAGAAGGUUUUAACAUGAGGAUCACCCAUGUAGGACUAUAUAUGUGAAUA [Parity 96 - Jieux - Same State NG 1] (Eterna round: R96, puzzle: Same State NG 1)	15.3 nM	10.2 nM	15.4 nM	–	–	–
CCCUUCGGCACAUGAGGAUCACCCAUGUUUUAGUUGAAGAGGUAGGAUAUGGCUGGGAGCGGAAGCCAGAAGGACCAAGUGAGU [Lareonge] (Eterna round: R96, puzzle: Same State NG 3)	7.76 nM	8.41 nM	12.6 nM	–	–	–
GUAAAACAUGAGGAUCACCCAUGUCAAUGUAGUCGAGGAUAUGGGUAGCUAUGAGGCGUACUAGAAGGCGAAAAGU [Mat - Same State 1 - Mod of JL - D18] (puzzle: Same State 1)	–	–	–	91.8 nM	85.5 nM	248 nM
GGAGGACAUGAGGAUCACCCAUGUGGAUGGGCGCUAGGAUAUGCGAGAGGGAAGAGUGGAGCAGAAGGAGUGGGUU [JR_SS1_Sub044] (puzzle: Same State 1)	–	–	–	–	40 nM	–
GUUACAUGAGGAUCACCCAUGUAUGUGUGGGAGUAAGUGUCUUAGGAUAUCUAUGAUUUAAUUAAAGAGAAGGAAGAUUGUUGU [JMF's solution 83] (Eterna round: R96, puzzle: Same State NG 3)	154 nM	85 nM	103 nM	–	–	–
ACACUCCGUGGAGGAUAUGGGCCUGCCCGGGAUACCGGGCCUAACACAUGAGGAUCACCCAUGUCCCAGAAGGCCGCUGGAGCC [Enenala] (Eterna round: R96, puzzle: Same State NG 2)	26.2 nM	55.7 nM	120 nM	–	–	–
CCGAAAUAUGGAGGAUAUGGAGCCUUAUUGGCUCCAGAAGGUCAAAACAUGAGGAUCACCCAUGUAUCGGCGGUCAAUAGACCG [Eli NG1ss - 73] (Eterna round: R96, puzzle: Same State NG 1)	123 nM	81.7 nM	171 nM	–	–	–
UGUUGUAUUACAGGAUAUCUAUUGUUUUUGUUUAGAGAAGGGUAUUCACAUGAGGAUCACCCAUGUAUAUACGAGGAAGUUGUG [JMF's solution 80] (Eterna round: R96, puzzle: Same State NG 1)	–	45 nM	–	–	–	–
UUAAGCCACGGGCAGGAUAUGUAUUAAAGUACAUGAGGAUCACCCAUGUGCAGGUGUAACACCUGACAGAAGGGCCAAUCGCGGC [Soondi - 3] (puzzle: Same State 2)	–	–	–	16 nM	68 nM	72.7 nM
UUGCCGCGGGUAGGAUAUGGUCACACUUCUAAAACAUGAGGAUCACCCAUGUCCGACACAUAAAGCCAGAAGGACCCGCGGCUC [Erisriin] (Eterna round: R96, puzzle: Same State NG 2)	18.2 nM	47.4 nM	77.3 nM	–	–	–
GGUCCAGCCUGAGCUGGACAAAGGCAUGUACAUGAGGAUCACCCAUGUCAUGUACAAGCUUUUUGCUCGUCUUAAAA [JL mod - D87 - 3] (puzzle: Sensor for hsa-mir-208a)	–	–	–	168 nM	13.8 nM	220 nM
